Test results taken from patent US9057734B2, “Optogenetic probes for measuring membrane potential” (President and Fellows of Harvard College, priority 2010, dated 2015).

Legend:
[1] = Relative photostability of Arch 3 and eGFP in Arch 3-eGFP fusion; type: physicochemical
Experimental: To perform a direct comparison of photostability of Arch 3 and eGFP we studied the photobleaching of the Arch 3-eGFP fusion. This strategy guaranteed a 1:1 stoichiometry of the two fluorophores, simplifying the analysis. The experiments were performed on permeabilized cells, in the microscope, with video recording as the cells photobleached. We first recorded a movie of photobleaching of Arch 3 under 640 nm illumination; then on the same field of view we recorded photobleaching of eGFP under 488 nm illumination, with illumination intensity adjusted to yield approximately the same initial count rate as for Arch 3. Fluorescence background levels were obtained from nearby protein-free regions of each movie and were subtracted from the intensity of the protein-containing regions. The area under each photobleaching timetrace was calculated, yielding an estimate of the total number of detected photons from each fluorophore. The eGFP emission (λmax=509 nm) and the Arch emission (λmax=687 nm) were collected through different emission filters, so the raw counts were corrected for the transmission spectra of the filters and the wavelength-dependent quantum yield of the EMCCD camera. The result was that the relative number of photons emitted prior to photobleaching for eGFP:Arch 3 WT was 3.9:1, and for eGFP:Arch D95N this ratio was 10:1.

[2] = test system: HEK-293 cells; assay: Fluorescence versus membrane potential under whole-cell voltage clamp (ramp, step, frequency response, noise); type: cell-based, human
Experimental: Fluorescence of Arch 3 in HEK 293 cells was readily imaged in an inverted fluorescence microscope with red illumination (λ=640 nm, I=540 W/cm^2), a high numerical aperture objective, a Cy5 filter set, and an EMCCD camera. […] Cells not expressing Arch were not fluorescent.
HEK-293 cells were grown at 37° C., 5% CO2, in DMEM supplemented with 10% FBS and penicillin-streptomycin. Plasmids were transfected using LIPOFECTAMINE™ and PLUS reagent (Invitrogen) following the manufacturer's instructions, and assayed between 48-72 hours later. The day before recording, cells were re-plated onto glass-bottom dishes (MatTek) at a density of ˜5000 cells/cm^2.
The concentration of endogenous retinal in the HEK cells was not known, so the cells were supplemented with retinal by diluting stock retinal solutions (40 mM, DMSO) in growth medium to a final concentration of 5 μM, and then placing the cells back in the incubator for 1-3 hours. All imaging and electrophysiology were performed in Tyrode's buffer (containing, in mM: 125 NaCl, 2 KCl, 3 CaCl2, 1 MgCl2, 10 HEPES, 30 glucose pH 7.3, and adjusted to 305-310 mOsm with sucrose). Only HEK cells having reversal potentials between −10 and −40 mV were included in the analysis.
Simultaneous fluorescence and whole-cell patch clamp recordings were acquired on a home-built, inverted epifluorescence microscope at room temperature. A diode laser operating at 100 mW, 640 nm (CrystaLaser, DL638-100-O) provided wide-field illumination at an intensity typically between 500-2000 W/cm^2. To minimize background signal from out-of-focus debris, illumination was often performed in through-the-objective total internal reflection fluorescence (TIRF) mode. Fluorescence emission was collected using a 60×, 1.45 NA oil immersion objective (Olympus), and separated from scattered excitation using a 660-760 nm bandpass emission filter (Chroma). For fast imaging of dynamic fluorescence responses and action potentials, images were acquired on an Andor iXon^+ 860 camera operating at up to 2,000 frames/s (using a small region of interest and pixel binning). Slower images with higher spatial resolution were acquired on an Andor iXon^+ 897 EMCCD. Custom software written in LabView (National Instruments) was used to synchronize illumination, collection of images, recording of membrane potential and cell current, and application of electrical stimuli to the cell.
Filamented glass micropipettes (WPI) were pulled to a tip resistance of 3-10 MΩ, fire polished, and filled with internal solution (containing, in mM: 125 Potassium gluconate, 8 NaCl, 0.6 MgCl2, 0.1 CaCl2, 1 EGTA, 10 HEPES, 4 Mg-ATP, 0.4 Na-GTP, pH 7.3; adjusted to 295 mOsm with sucrose). The micropipettes were positioned with a Burleigh PCS 5000 micromanipulator. Whole-cell, voltage clamp recordings were acquired using an AxoPatch 200B amplifier (Molecular Devices), filtered at 2 kHz with the internal Bessel filter, and digitized with a National Instruments PCIE-6323 acquisition board at 10 kHz. Ambient 60 Hz noise was removed using a HumBug Noise Eliminator (AutoMate Scientific). For experiments requiring rapid modulation of transmembrane potential, series resistance and whole-cell capacitance were predicted to 95% and corrected to ˜50%. Electrical stimuli were generated using the PCIE-6323 acquisition board and sent to the AXOPATCH™, which then applied these signals in either constant current or constant voltage mode.
To measure fluorescence as a function of membrane potential, a triangle wave was applied, with amplitude from −150 mV to +150 mV and period 12 s, with video recording at 100 ms per frame. A pixel weight matrix was calculated according to Eq. S2 and applied to the movie images to generate a fluorescence number for each frame. These fluorescence values were divided by their minimum value (at V=−150 mV). The result is plotted as a function of Vin FIGS. 7 and 8. […]

[3] = test system: HEK cells; assay: Photocurrents under 640 nm illumination in voltage-clamped cells; type: cell-based, human
Experimental: Measurements of photocurrents were performed on HEK cells held in voltage clamp at 0 mV while being exposed to brief (200 ms) pulses of illumination at 640 nm at an intensity of 1800 W/cm^2.

B1: Arch 3 WT: Archaerhodopsin 3, light-driven proton pump from Halorubrum sodomense, used as fluorescent voltage indicator (protein)
chain: MDPIALQAGYDLLGDGRPETLWLGIGTLLMLIGTFYFLVRGWGVTDKDAREYYAVTILVPGIASAAYLSMFFGIGLTEVTVGGEMLDIYYARYADWLFTTPLLLLDLALLAKVDRVTIGTLVGVDALMIVTGLIGALSHTAIARYSWWLFSTICMIVVLYFLATSLRSAAKERGPEVASTFNTLTALVLVLWTAYPILWIIGTEGAGVVGLGIETLLFMVLDVTAKVGFGFILLRSRAILGDTEAPEPSAGADVSAAD
modifications: Halorubrum sodomense
notes: Archaerhodopsin 3, light-driven proton pump from Halorubrum sodomense, used as fluorescent voltage indicator
photons prior to photobleaching relative to eGFP [1]: approximately 25% | voltage steps resolved/reported ([2]; HEK cells): 10 mV | photobleaching ([2]; continuous 10-minute exposure, 640 nm, 540 W/cm2): 17% | fluorescence oscillation amplitude retained relative to low-frequency amplitude ([2]; sinusoidal membrane potential, f=1 kHz): 55% | response time to a step in membrane potential ([2]; steps between −70 mV and +30 mV): < 0.5 ms | response of fluorescence to a step in membrane potential, time ([2]; time resolution of imaging system, rising and falling edge): ≤ 500 μs | increase of fluorescence (fold/factor) between −150 mV and +150 mV ([2]; whole-cell voltage clamp): 2 | photocurrents induced by imaging laser ([3]; 640 nm, HEK cells): 10-20 pA | photocurrent / photoinduced proton pumping ([3]; illumination at 640 nm): retains the photoinduced proton-pumping
